Assay [1] addresses T1, erythropoietin-producing hepatocellular (Eph) A2 receptor (UniProt P29317 24-976, limits assumed).
T1 construct: whole, on cells; Endogenous receptor on ovarian cancer cell lines
The assay can be described thus: flow cytometry on Hey cells, 0.8 mg/mL fluorescent nanogels, 4 h incubation; reference is SCR-labeled nanogels. Here is the method:
(§1) Flow cytometry. Hey cells were plated at 2.5×10⁵ cells/well in a 12-well, cell culture plate. Cells were allowed to adhere overnight in an incubator at 37° C. in a 5% CO₂ atmosphere. Cells were washed, and fresh medium was added containing YSA-pNIPMAm or SCR-pNIPMAm nanogels at a concentration of 0.8 mg/mL and incubated for four hours. Following incubation, the cells were washed with PBS and removed from the plate by Trypsin-EDTA treatment. The cells were washed with PBS and fixed with 2% (v/v) paraformaldehyde. Cells were analyzed using a LSR Flow Cytometer (BD Biosciences). Data analysis was carried out using FlowJo software.

The target in assay [2] is T1, erythropoietin-producing hepatocellular …. The assay can be described thus: flow cytometry on Hey cells after 4 h incubation with fluorescent nanogels. Here is the method: as §1
For orientation: A flow cytometer gives signals particle by particle.

T1 sequence (P29317 24-976 limits assumed): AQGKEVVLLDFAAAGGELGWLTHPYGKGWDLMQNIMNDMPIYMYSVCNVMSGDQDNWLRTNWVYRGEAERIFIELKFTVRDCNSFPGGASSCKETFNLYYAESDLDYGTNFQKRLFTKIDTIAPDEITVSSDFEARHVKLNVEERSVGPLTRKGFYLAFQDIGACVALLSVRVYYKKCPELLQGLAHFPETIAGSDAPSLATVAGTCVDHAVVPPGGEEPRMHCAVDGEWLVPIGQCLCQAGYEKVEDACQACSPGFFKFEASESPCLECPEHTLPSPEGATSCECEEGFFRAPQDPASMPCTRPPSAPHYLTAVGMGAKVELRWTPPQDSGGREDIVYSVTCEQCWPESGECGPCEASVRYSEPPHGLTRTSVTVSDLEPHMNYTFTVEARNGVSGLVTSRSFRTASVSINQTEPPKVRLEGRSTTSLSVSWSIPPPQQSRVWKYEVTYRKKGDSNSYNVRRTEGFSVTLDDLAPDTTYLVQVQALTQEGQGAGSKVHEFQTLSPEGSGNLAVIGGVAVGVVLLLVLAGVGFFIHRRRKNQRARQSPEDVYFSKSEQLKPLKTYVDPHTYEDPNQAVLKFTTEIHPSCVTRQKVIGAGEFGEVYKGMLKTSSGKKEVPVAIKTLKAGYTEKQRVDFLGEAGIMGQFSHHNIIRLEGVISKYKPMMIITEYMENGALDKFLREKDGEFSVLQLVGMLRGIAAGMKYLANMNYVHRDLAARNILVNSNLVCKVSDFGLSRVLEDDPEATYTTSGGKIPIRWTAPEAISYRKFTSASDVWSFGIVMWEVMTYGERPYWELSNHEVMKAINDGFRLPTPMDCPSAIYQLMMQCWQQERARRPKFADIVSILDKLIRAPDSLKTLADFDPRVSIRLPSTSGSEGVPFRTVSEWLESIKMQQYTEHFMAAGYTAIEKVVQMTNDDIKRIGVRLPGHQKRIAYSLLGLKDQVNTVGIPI

B1: YSA peptide (YSAYPDSVPMMSC) conjugated to core/shell pNIPMAm nanogels (peptide)
peptide: YSAYPDSVPMMSC
modifications: C-terminal cysteine coupled by maleimide (epsilon-maleimidocaproic acid, EMCA) to primary amines of the nanogel shell
notes: The peptide that was made and conjugated carries the C-terminal Cys; also called YSA-conjugated nanogels; YSA-pNIPMAm nanogels
With B1, in assay [1], the “fold fluorescence relative to SCR-labeled nanogels” value is approximately 10 fold.

B2: Scrambled (SCR) peptide (DYPSMAMYSPSVC) conjugated to core/shell pNIPMAm nanogels (peptide)
peptide: DYPSMAMYSPSVC
modifications: C-terminal cysteine coupled by maleimide (EMCA) to primary amines of the nanogel shell
notes: Control peptide with the same amino acid composition as YSA, tethered to the same nanogels; also called SCR-pNIPMAm nanogels; SCR-labeled nanogels
B2: in assay [2], the binding result is reported as “no binding (tested: 0.8 mg/mL nanogels)”.

These data come from US20110091562A1 (GEORGIA TECH RESEARCH, published 2011).
